# B1: 14G01 monoclonal antibody (antibody, V domains shown)
# VH: QVQLQESGPGLVKPSETLSLTCTVSGGSISSYYWSWIRQPAGKGLEWIGRISTSGFTNYNPSLKSRVTMSVDSSKNQFSLKLSSLTAADTAVYYCARDGWGRVFDIWGLGTMVTVSS
# VL: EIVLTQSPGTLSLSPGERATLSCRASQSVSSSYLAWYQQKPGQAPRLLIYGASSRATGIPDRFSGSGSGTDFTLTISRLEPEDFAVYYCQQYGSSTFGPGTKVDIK
# notes: Purified from hybridoma supernatant; VH and VK are human; The antibody was captured on an anti-mouse Fc surface in SPR
# B2: 22C12 monoclonal antibody (parental, mouse light chain) (antibody, V domains shown)
# VH: QVTLKESGPVLVKPTETLTLTCTVSGFSLSNARMGVSWIRQPPGKALEWLAHIFSNDEKSYSTSLKSRLTISKDTSKSQVVLTMTNMDPVDTATYYCARIYGGDSWGYFDNWGQGTLVTVSS
# VL: QIVLTQSPAIMSASLGEKVTMTCSASSSVSYMHWYQQKSGTSPKRWIYDTSKLASGVPARFSGSGSGTSYSLTISSMEAGDAATYYCQQWSSNPPTFGAGTKLELK
# notes: Purified from hybridoma supernatant (AlivaMab Mouse); VH is human and VK is mouse; The antibody was captured on an anti-mouse Fc surface in SPR; also called 22C12 (mLC); mLC22C12
# What was measured:
# [1] = molecular target: T1, purified recombinant human ART1 (human, UniProt P52961 23-295); assay: sensorgrams R [RU] against time [s] with fitted lines, panel '14G01 Binding huART1', huART1 at 100.0, 25.00, 12.50, 6.250, 3.125, 1.563 nM; format not told for this figure (FIG. 12 legend: SPR, antibody captured on anti-mouse Fc, 1:1 fit)
# T1 construct: Produced in HEK293 cells and purified; also called huART1; human ADP-ribosyltransferase 1
# T1 sequence: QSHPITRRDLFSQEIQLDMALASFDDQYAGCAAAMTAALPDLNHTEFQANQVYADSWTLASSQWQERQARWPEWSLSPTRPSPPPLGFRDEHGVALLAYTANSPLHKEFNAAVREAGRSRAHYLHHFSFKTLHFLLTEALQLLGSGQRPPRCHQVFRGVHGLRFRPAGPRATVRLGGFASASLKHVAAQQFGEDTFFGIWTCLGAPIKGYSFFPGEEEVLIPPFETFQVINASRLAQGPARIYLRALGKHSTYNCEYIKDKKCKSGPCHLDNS
# [2] = molecular target: T2, human ART1 expressed on HEK293 cells (human, UniProt P52961 23-295); assay: cell-based or functional assay
# T2 sequence: T1 sequence
# [3] = molecular target: T3, purified recombinant mouse ART1 (mouse, UniProt Q60935 23-290); assay: sensorgrams R [RU] against time [s] with fitted lines, panel '14G01 Binding moART1', moART1 at 200.0, 100.0, 25.00, 12.50, 3.125, 1.563 nM; format not told for this figure (FIG. 12 legend: SPR, antibody captured on anti-mouse Fc, 1:1 fit)
# T3 construct: Produced in HEK293 cells and purified; also called moART1; murine ART1
# T3 sequence: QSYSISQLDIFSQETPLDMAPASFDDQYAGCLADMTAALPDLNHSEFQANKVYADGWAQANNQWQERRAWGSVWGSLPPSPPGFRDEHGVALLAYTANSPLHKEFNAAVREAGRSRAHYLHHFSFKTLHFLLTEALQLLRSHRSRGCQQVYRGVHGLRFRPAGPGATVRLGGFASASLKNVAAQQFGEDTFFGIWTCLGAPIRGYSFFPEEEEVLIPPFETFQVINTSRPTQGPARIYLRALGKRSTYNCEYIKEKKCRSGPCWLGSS
# [4] = molecular target: T3, purified recombinant mouse ART1; assay: SPR; antibody captured on anti-mouse Fc surface, ART1 as analyte, 1:1 kinetic fit
# Description: (§1) FIGS. 12A-12D. […] Sensorgrams are double-reference subtracted using a control surface and blank injections. Affinity constants were determined by kinetic fit using a 1:1 binding model.
# [5] = molecular target: T1, purified recombinant human ART1; assay: as above
# Description: as §1
# [6] = molecular target: T2, human ART1 expressed on HEK293 cells; assay: panel 'ART1 Ab binding' on HEK293 cells transfected with ART1; y axis GMFI, Ratio to 2nd Only, x axis Log[Ab], nM (the legend calls it a NAD-Glo assay); the curve rises from about 3.3 to a plateau of about 13
Binder,Kd [1] [nM],IC50 Cell Surface ADP-Ribosylation [2] [nM],Kd [3] [nM],Kd [4] [nM],Kd [5] [nM],EC50 [6] [nM]
B1,3.8,28,6.2,6,4,
B2,,14,,0.439,0.161,0.75

# Source: US20250382381A1 (CORNELL UNIVERSITY, published 2025)
